Laboratory results: the DeepSol protein solubility set

Assay: soluble on expression in E. coli; label from the status in PepcDB or PDB records

| Sequence | soluble on expression in E. coli |
| --- | --- |
| MEEKKEDKFILLKNLYEEWKDCTRCDLHKSRTRVVPGDGNPYSLLVFVGEAPGEEEDRQGKPFVGRAGQLLNRLIEEVLGMKREDVYITNVCKCRPPQNRKPTPIEMRACFPYLKKEIEIIQPKVICCLGATAGEGILGKSLRITKVRGQVFPYPYNPRIKVFLTYHPAYVLRNPKEETTIIKDFEKLKELLTQE | soluble |
| MTQKLHIKTWGCQMNEYDSSKMADLLLSTHGLELTEAPEEADVLLLNTCSIREKAQEKVFHQLGRWKELKKNNPNLVIGVGGCVASQEGEHIRHRAPYVDIIFGPQTLHRLPEMINQIRGGKSSVVDVSFPEIEKFDRLPEPRAEGPTAFVSIMEGCNKYCTFCVVPYTRGEEVSRPVDDVLFEIAQLAEQGVREVNLLGQNVNAYRGPTHDGQICSFAELLRLVASIDGIDRLRFTTSHPIEFTDDIIDVYRDTPELVSFLHLPVQAGSDRVLTMMKRAHTALEYKSIIRKLRAVRPDIQISSDFIVGFPGETAEDFEQTMNLIAQVNFDMSFSFVYSARPGTPAADMPDDVTEDEKKQRLYVLQERINQQAAQFSRRMLGTEQRVLVEGPSKKDIMELTGRTETNRIVNFQGSPEMIGKFVDVKITDVYTNSLRGEVVRTEDEMGLRIAQSPQEVMNRTRKEDELGVGRYHGLEHHHHHH | soluble |
| MGSDKIHHHHHHMKKETKHFRALLADNALYYIYSNISAPLSLQELAKEAGVSAHHFHRIFKEEQGQNLYETIKSIRLQKAANLLLSNHYSTISEVAQLCGYSSSASFIKAFKGRFHLTPREWRHGGHRQYAKEILSTSSAAMASQRSFLGLEPTIKKIPAFRAVYLRHKGYNKSIALSWQKLMAWGFEHQISSQARQIGIHHDNPSITPLAECRYIAALEVEEGFRAQGLLGVMEFPPTLCAVFEVQGRYGDVLGLIDYVYHEWLPQSGYEAKTIPAFALYQKNHFLDPLGNFQLDFCLPVGVV | not soluble |
| MIFCTVGSGIEGYEQSFSKISVEGYDTSVHEFPLKLALAKHFASCGKIVDIDVPRDFKKRILKSPLFIIFHAKEGESPVDKALELSGTDVGGWNVVVKSLPGQQMYRDPGGVDRFKGERTLIVKVYDTPSTLSKIDLQIGLCKHFSSCGEVTGISVLVHGNLCCHESKARVDIMGKGCVDKALELSGRTADGWKIVVYFVVPPAGRKLKPTGSGHPTIGVERMKKAELKKKAKMEMMDKGKKKRKTTE | not soluble |
| GSHMASMTGGQQMGRGSDSSNAITIENNTLWTGAKPSANCVIKEGEDSPDCKLTLVLVKNGGLINGYITLMGASEYTNTLFKNNQVTIDVNLAFDNTGQIITYLSSLKSNLNFKDNQNMATGTITSAKGFMPSTTAYPFITYATETLNEDYIYGECYYKSTNGTLFPLKVTVTLNRRMLASGMAYAMNFSWSLNAEEAPETTEVTLITSPFFFSYIREDD | soluble |
| MGSDKIHHHHHHMAQYSAEFKQAKVLVLGDVMLDRYWFGATNRISPEAPVPVVRVQENEERAGGAANVAMNIASLNVPVQLMGLIGQDETGSALSLLLEKQKIDCNFVALETHPTITKLRILSRHQQLLRLDFEEDFNNVDCKDLLAKLESAVKNYGALILSDYGKGTLKDVQKMIQIARKANVPVLIDPKGTDFERYRGATLLTPNMSEFEAVVGKCNTEEEIIEKGLKLISDIELTALLVTRSEKGMTLLRPNQEPYHLPTVAKEVFDVTGAGDTVISVLATALADGRSFEESCYLANVAAGIVVGKLGTSTVSTVELENAIHARPETGFGIMSEAELKDAVAQAKARGEKIVMTNGCFDILHPGHISYLENARKLGDRLIVAVNSDDSVKRLKGESRPINNLENRMAVLAGLASVDWLVPFTEDTPQRLIGEILPDLLVKGGDYKPEEIAGSKEVWANGGDVKVLNFENGCSTTNVIEKIKLLKD | not soluble |
| MGSDKIHHHHHHMHLLFPEVCILCQKPLGEGEEHICAGCFNDFNPFPSVLAGGAALKSTVRAHFGEKAVPAAAWCLYPYRSRGSLHEAMHAMKYGGLFPLGELFGKRLGELICQGGVPVGFDAIVPVPLHHLKRIERTYNQAEALARGMAGLIGLPVATRSLERCVYTGTQTGLGLEARRENMAGAFRPGRERCPARVLLVDDVLTTGATMVSAAKVLKAAGAVEVAFATVALTEKE | not soluble |
| MKKEIKFSLMYRDMWQSSGKYQPRKDQLERIAPVIVEMGCFARVETNGGAFEQVNLLYGENPNKAVRAFTKPLNEAGIQTHMLDRGLNGLRMFPVPADVRRLMYKVKKAQGVDITRIFDGLNDARNIIPSIKYALEAGMIPQATLCITFSPVHTVEYYSNLADELIAAGAPEICLKDMAGIGRPHFLGQLVKSIKTKHPDVIIEYHGHSGPGFSVASMLEVCENGADIIDVAMEPISWGKVHPDVITIQQMLKDAGFKVPEINMDAYMKARSLTQEFIDDFLGYFMDPSNKETSSLLVGCGLPGGMMGSMMADLKGVHAGINMFLKGKGEPEMTIDQLLVRLFQEVEYVWPRLGYPPLVTPFSQYVKNVALMNVYNMIRGEGRWQAIDQNTWGMILGKSGRLPGKLDPEIIALAKEKGMEFSDADPQQFYPDALDEFRKEMDQNGWEYGPDDEELFELAMHDRQYRDYKSGVAKERFNADLDKAKADRMAKQGYSDEDIKKAKRAGCDPIVAPCSGRLYWEIDTEEQSIAPAIGAEYRTGQPFCYIENQFGYIEKVYCTFTGRITEVVAQGTVVKKGDEIAYLRTAEKEIMWEGANEHIVRVETMPEPRKRITKSAQKN | not soluble |
| MSLSVRVDYALVGRELEAREAVCLVFDGSDGRLSSISSSSSCPESSPKFTIAVPPSVNAHIHSSDVQWPEVGNDLSLEELVAPPRGLKHLLLQQAGERACAEAAVGVYRALGRMVVRAAADFREPAAGGCLPVREILATLGGLYTRVVLMGRPGDPYGLEGCDGIGLNSPLDVDPKRMRLLKKSGMRIHAHVAETREMRLEGDLEAALDIGVDTVIHGTHLSREDLELLREHGVTLVLSPRSNMWHGVGLPPVAEAYRVGVKIAFGTDNAAWNMLDPWDEARQAMLVARLQGVKDPGLPHYILKGLLSWGYEALGMEPPALAEGADMCSVALMRLEGYEAGLFRRSFSRYYTLLKIARGDLLQPVCTISGGLLEPAEGHHHHHH | soluble |
| MLSAAAFAADKVVKLPKPNLNRTGTVMKALSERQSTREYASKALTLADLSDLLWAANGINRSDAGKRTAPSAMNKQDVDVYVILSEGSYLYDAKNHQLNLIAEGDYRGAVAGGQAFVKTAPVSLVLISDVSRFGDAQKIQNQLMGAMDAGIVSQNISIFCSAAKLATVPRASMDAAQLKKVLKLKDSQIPMMNHPVGYFK | not soluble |
| GSPGISGGGGGIPVIDGPTQILVRDVSDTVAFVEWTPPRAKVDFILLKYGLVGGEGGKTTFRLQPPLSQYSVQALRPGSRYEVSISAVRGTNESDASSTQFTTEIDAPKNLRVGSRTATSLDLEWDNSEAEAQEYKVVYSTLAGEQYHEVLVPKGIGPTTKTTLTDLVPGTEYGVGISAVMNSKQSIPATMNARTELDSPRDLMVTASSETSISLIWTKASGPIDHYRITFTPSSGISSEVTVPRDRTSYTLTDLEPGAEYIISITAERGRQQSLESTVDAFT | soluble |
| MASDLESSLTSIDWLPQLTLRATIEKLGSASQAGPPGSSRKCSPGSPTDPNATLSKDEAAVHQDGKPRYSYATLITYAINSSPAKKMTLSEIYRWICDNFPYYKNAGIGWKNSIRHNLSLNKCFRKVPRPRDDPGKGSYWTIDTCPDISRKRRHPPDDDLSQDSPEQEASKSPRGGVAGSGEASLPPEGNPQMSLQSPTSIASYSQGTGSVDGGAVAAGASGRESAEGPPPLYNTNHDFKFSYSEINFQDLSWSFRNLYKSMLEKSSSSSQHGFSSLLGDIPPSNNYYMYQQQQPPPPQQQQQQQQPPQPPPQQSQPQQQQAPAQGPSAVGGAPPLHTPSTDGCTPPGGKQAGAEGYGPPPVMAMHPPPLQHGGYHPHQHHPHSHPAQQPPPPQPQAQGQAPINNTGFAFPSDWCSNIDSLKESFKMVNRLNWSSIEQSQFSELMESLRQAEQKNWTLDQHHIANLCDSLNHFLTQTGHVPPQGGTHRPPAPARIADSCALTSGKQESAMSQVNSYGHPQAPHLYPGPSPMYPIPTQDSAGYNRPAHHMVPRPSVPPPGANEEIPDDFDWDLIT | soluble |
| MVAKISVGSSLFGALSYNQNKVDEEQGKVLLSNRMFESEDGNFSIRRCMECFDMHLPADLKTEKPIIHISLNPHPDDVLSDSQLADIAKEYMDKLGYGNQPYMVYKHEDIARHHIHIVSIRVDDTGKKINDKFEHIRSKQITRELEQKYGLHPAEKKQAADRPELKKVDYRAGDVKHQLSNTVKALASSYRFQSFTEYKALLSIYNVQAEEVKGEVNGKPYNGIVYSATNDKGEKQGNPFKSSSLGKSVGYEAIQRHIKKSTKDIQDKNLKERTRRTVGAVMKSAHSRKELEQELKRKGIDVLFRQNDTGRIYGVTFIDHENRTVLNGSRLGKDFSANVFNDLFSGSRTLSGNSKQETQEQKPEYNPTGHLENTGKAIAGLFSLLSGGNDTPPDNSQVPPPKKKKKKKQRRILEHHHHHH | soluble |
| MIPATLHQLKVFETTARHGSFTKAAEELSITQPTVSGQVKQLTQTIGMPLFEHIGRKLYLTEAGEELLATCQEIFERLDNFEMKLAALQGAKRGQLRLGVITTTKYFVPRILGEFCQDYPDIDVSLQVINHQQLHDRMADNLDDLYILSNLPDDLDVHAQAFLDNPLVVVARADHPLAHQKNLPLSVLDGADFVTREMGSGTRLAVEKLLAEHDVSVQVRLELGSNEAIKQAIAGGLGISVLSRHTLITEPPHGELTVLDVEHFPIQRHWYVAYLAGKQLSVIAQAFLEFMVRSSQKTLENSGRRSLALQP | not soluble |
| MGSDKIHHHHHHMLWLLMTTGKCNLKCDYCGGSFPDNVVPYGIKYDINSVKKLIEKDKDSTIIFYGGEPLLNYKFVMAVLDNVRAKRYGIQTNGIAVRLLPERYWRKINVALLSIDGREEITNKHRGKGIYKAVLRSAKYLKDLGVETIARMTVTQDTDIFTDVMHLIDLGLFDKVHWQLDVIWSEEWDFKSWSFSYLNGIKRLTDYFLSELRKGRVVKIIPILGVISAHFFEGYKGSPCGAGYSSVTVTPDGRILSCPIAVREKWAELGNVNLGYRLLEDPLPDDCKRCEFKRYCGGRCLYAQKERYWGEEGFKAVDEVNKEYLRTVLSIIPEIERLIRDGYIRLSDLYYNPILDSTEIIP | not soluble |
| MRTKYILELFDTSEQHKPIARFESSTPFTAASVGERFDDIGWERLDGAGKIASPLSPKRYTVHSAKHLVIVEAGALVIKYCLNLEPFSGPSSPVWGDE | not soluble |
| KQKVINVKEVRLSPTIEEHDFNTKLRNARKFLEKGDKVKATIRFKGRAITHKEIGQRVLDRLSEACADIAVVETAPKMDGRNMFLVLAPKNDNK | soluble |
| MGSDKIHHHHHHMATQTDSEAALRIASGRKAFVEPLRLGERLKEIRLSNRWTLEDVSQRTGLARSTLSKIENDQISPTFSAVQKLIGGLGIDLPQLLTPPKPQSRTLGRRDLTRVGEGKQHPTPTYEHELLSWQLAQKRMIPFKTIVRARDFNEFSEWVRHDGEEFLMVLDGDIWLYTEFYEPLHLAQGDSIYFDSDMGHALISVSETDAVVLSVCTRGENA | not soluble |
| MGSDKIHHHHHHMFERDNREDEAAELVTLAAKLKALMKPDVARRVEPDLEALLEAEGLAMRPGPRPMIDTDLVQELRQAMITCSKVKLRYRNRRTRQANERIVHPYAFLHGHRNYLIAWHEHPKANKVALFALPHIEAVDATGEPFVRDPGFQLQDFAARSFGLFQDEPFQTAWKFAPDAADDAAEFLFHPSQAQERLPDGSLIVRFVAASELEMAWHLYAWGDKVEVLEPQKLAEMVNPGRVAWPALP | not soluble |
